One may read the stoichiometry N as a count of units in the complex or per binding partner. In general, kcat refers to the number of substrate molecules converted per active site and unit of time at saturation. By kcat/Km is commonly meant the second-order rate constant that governs catalysis at low substrate concentration.

The target in data set [1] is PAL/TAL from Trichosporon cutaneum (TcPAL) (Trichosporon cutaneum). Kind of data set: SEC-MALS; analytical SEC on Superdex200 Increase 10/300 GL in filtered PBS pH 7.4, 50 ul of ca. 1-2 mg/ml enzyme, 0.75 ml/min, miniDAWN MALS detector; self-association (tetramer and larger oligomers).
In data set [2] the test system is T1, MEGA_A3.
T1 construct: N-terminal 6xHis tag, E. coli BL21(DE3); tetramer
Description: p-coumaric acid formation at […] nm, Michaelis-Menten fit. Format: biochemical, synthetic construct. To be noted: 50 mM Tris-HCl, pH 9.2, 37 °C; read-out: L-Tyr^a / KM^c.

Data set [3] concerns T2, PAML_A1.
T2 construct: N-terminal 6xHis tag, E. coli BL21(DE3); tetramer
The description is as above. The following applies: 50 mM Tris-HCl, pH 9.2, 37 °C; read-out: L-Tyr^a / KM^c. Format: biochemical, synthetic construct.

For data set [4], the system named is T3, MEGA_A1.
T3 construct: N-terminal 6xHis tag, E. coli BL21(DE3); tetramer
The data set is described as above. Format: biochemical, synthetic construct. The following applies: 50 mM Tris-HCl, pH 9.2, 37 °C; read-out: L-Tyr^a / KM^c.

Data set [5] has as its system T2, PAML_A1. Description: trans-cinnamic acid formation at […] nm, Michaelis-Menten fit. Format: biochemical, synthetic construct. The following applies: 50 mM Tris-HCl, pH 9.2, 37 °C; read-out: L-Phe^a / KM^c.
The test system of data set [6] is T1, MEGA_A3. The description is as above. Format: biochemical, synthetic construct. To be noted: 50 mM Tris-HCl, pH 9.2, 37 °C; read-out: L-Phe^a / KM^c.
The test system of another data set is T4, PAML_A2.
T4 construct: N-terminal 6xHis tag, E. coli BL21(DE3); tetramer
Described as above. Format: biochemical, synthetic construct. The following applies: 50 mM Tris-HCl, pH 9.2, 37 °C; read-out: L-Phe^a / KM^c.

In data set [7] the test system is T3, MEGA_A1. The data set is described as above. Format: biochemical, synthetic construct. To be noted: 50 mM Tris-HCl, pH 9.2, 37 °C; read-out: L-Phe^a / KM^c.
Data set [8] deals with PAL/TAL from Rhodotorula glutinis (RgPAL) (Rhodotorula glutinis). Kind of data set: SEC-MALS; analytical SEC on Superdex200 Increase 10/300 GL in filtered PBS pH 7.4, 50 ul of ca. 1-2 mg/ml enzyme, 0.75 ml/min, miniDAWN MALS detector; self-association (tetramer and larger oligomers).
Substrate in data set [9]: N[C@@H](Cc1ccc(O)cc1)C(=O)O
Description: purified protein. Format: biochemical, Rhodotorula glutinis. To be noted: 50 mM Tris-HCl, pH 9.2, 37 °C.

Substrate in data set [10]: N[C@@H](Cc1ccccc1)C(=O)O
Description: purified protein. Format: biochemical, Rhodotorula glutinis. To be noted: 50 mM Tris-HCl, pH 9.2, 37 °C.

In turn, “PAL/TAL from Trichosporon cutaneum (TcPAL) (enzyme)” displayed a stoichiometry N in data set [1] of 4.

With `N[C@@H](Cc1ccc(O)cc1)C(=O)O` [L-tyrosine], the Km with MEGA_A3 [2] amounted to 50 ± 10 µM; in the data set with PAML_A1 [3] it was 2690 ± 10 µM; in the data set on MEGA_A1 [4], 400 ± 20 µM.

With `N[C@@H](Cc1ccccc1)C(=O)O` [L-phenylalanine], the Km in the data set on PAML_A1 [5] came to 4480 ± 620 µM; in the data set with MEGA_A3 [6], 350 ± 30 µM; in the data set on PAML_A2 it was 690 ± 150 µM; in the data set on MEGA_A1 [7], 3830 ± 970 µM.

“PAL/TAL from Rhodotorula glutinis (RgPAL) (enzyme)” displayed a stoichiometry N in [8] of 4.

B1: RgPAL (Rhodotorula glutinis) (protein)
chain: MAPSVDSIATSVANSLSNGLHAAAAANGGDVHKKTAGAGSLLPTTETTQLDIVERILADAGATDQIKLDGYTLTLGDVVGAARRGRSVKVADSPHIREKIDASVEFLRTQLDNSVYGVTTGFGGSADTRTEDAISLQKALLEHQLCGVLPTSMDGFALGRGLENSLPLEVVRGAMTIRVNSLTRGHSAVRIVVLEALTNFLNHGITPIVPLRGTISASGDLSPLSYIAASITGHPDSKVHVDGKIMSAQEAIALKGLQPVVLGPKEGLGLVNGTAVSASMATLALTDAHVLSLLAQALTALTVEAMVGHAGSFHPFLHDVTRPHPTQIEVARNIRTLLEGSKYAVHHETEVKVKDDEGILRQDRYPLRCSPQWLGPLVSDMIHAHAVLSLEAGQSTTDNPLIDLENKMTHHGGAFMASSVGNTMEKTRLAVALMGKVSFTQLTEMLNAGMNRALPSCLAAEDPSLSYHCKGLDIAAAAYTSELGHLANPVSTHVQPAEMGNQAINSLALISARRTAEANDVLSLLLATHLYCVLQAVDLRAMEFEHTKAFEPMVTELLKQHFGALATAEVEDKVRKSIYKRLQQNNSYDLEQRWHDTFSVATGAVVEALAGQEVSLASLNAWKVACAEKAIALTRSVRDSFWAAPSSSSPALKYLSPRTRVLYSFVREEVGVKARRGDVYLGKQEVTIGTNVSRIYEAIKSGRIAPVLVKMMA
notes: full-length codon-optimized gene, N-terminal 6xHis tag, pET22b(+), E. coli BL21(DE3); homotetramer; MIO cofactor from Ala-Ser-Gly
Take B1: in the data set “purified protein [9]”, the Km amounted to 280 ± 10 µM, the kcat was 1.71 ± 0.11 s⁻¹ and the kcat/Km came to 6300 ± 288 M⁻¹ s⁻¹. In “purified protein [10]”, the Km was 1350 ± 100 µM, the catalytic constant (kcat) is 8.95 ± 0.37 s⁻¹ and the kcat/Km stood at 6660 ± 259 M⁻¹ s⁻¹.

The values are drawn from publication PMC6987202, “Exploring the therapeutic potential of modern and ancestral phenylalanine/tyrosine ammonia-lyases as supplementary treatment of hereditary tyrosinemia” (Scientific Reports, 2020).
